PMC10516921 (Nature Communications, 2023)

How the values were obtained:
[1] = biological target: human ferroptosis suppressor protein 1, full length, recombinant from E. coli (human) (UniProt Q9BRQ8); assay: dynamic light scattering; DynaPro NanoStar, 8 °C or 20 °C, 5-10 μM protein in buffer B; also with NADH
[2] = biological target: the molecule itself; assay: SEC; Superdex 200 Increase 10/300 GL, buffer B (20 mM Tris-HCl pH 8.0, 150 mM NaCl), 0.5 ml/min, 20 °C, molecular weight markers
[3] = biological target: the molecule itself; assay: SEC + other: dynamic light scattering; in solution; the sentence points to Supplementary Fig. 4 as a whole (gel filtration in panels a, b; DLS in panel c)

Row | Molecule | stoichiometry N [2] | stoichiometry N [3] | other results
1 | human ferroptosis suppressor protein 1, full length, recombinant from E. coli (from UniProt Q9BRQ8 1-373) (enzyme) | – | – | stoichiometry N [1]: 2
2 | Gallus gallus FSP1 residues 12-373 (cFSP1^ΔN), not methylated (domain or fragment, Gallus gallus (chicken), UniProt E1BR24 12-373, looked up, FSP1 (AIFM2) of chicken (Gallus gallus), residues 12-373; lacks the N-terminal myristoylation motif (residues 1-11); Same limits as the crystallized, methylated protein; also called native cFSP1^ΔN; source: E. coli BL21 (DE3), purified (Ni-Chelating Sepharose, Superdex 200 Increase)) RVVIVGGGFGGIAAASQLKSWAVPFVLVDMRDAFHHNVAALRASVESGFARKTFISYSVTFGDSFRQGKVVGIDPERQQVLLSDGEELHYSHLILATGSDGPFPGKFNKVIDMESAIQTYEDMVKEIEKSERILVVGGGAAGVEMAAEIKTEYPAKEVTLIHSKIALADVELLQSVRQEVKEILLRKGVRLLLSEKVSNVENLTTNQFQKDMVVRTEKGTEVVVDMVVLCTGIKINSSAYATAFGDKLASNGALNVNKHLQLEGYDNIYAIGDCANLKEPKMAYHAELHANIVVSNIINSLTHKPLKTYQPGSLTFLLSMGKNDGVGQVKGYYVGHLLVTIAKSRDLFVSKSWKTMGQPMPS | 2 | – | –
3 | Gallus gallus FSP1 residues 12-373 (cFSP1^ΔN), reductively methylated (domain or fragment, Gallus gallus (chicken), UniProt E1BR24 12-373, looked up, surface lysine residues modified by reductive methylation (formaldehyde and dimethylamine-borane complex), FSP1 (AIFM2) of chicken (Gallus gallus), residues 12-373; lacks the N-terminal myristoylation motif (residues 1-11); Crystallized substrate-free and with CoQ1; A selenomethionine derivative was used for phasing; also called methylated cFSP1^ΔN; source: E. coli BL21 (DE3), purified (Ni-chelating resin, HiTrap Heparin, reductive methylation, Superdex 200 Increase)) RVVIVGGGFGGIAAASQLKSWAVPFVLVDMRDAFHHNVAALRASVESGFARKTFISYSVTFGDSFRQGKVVGIDPERQQVLLSDGEELHYSHLILATGSDGPFPGKFNKVIDMESAIQTYEDMVKEIEKSERILVVGGGAAGVEMAAEIKTEYPAKEVTLIHSKIALADVELLQSVRQEVKEILLRKGVRLLLSEKVSNVENLTTNQFQKDMVVRTEKGTEVVVDMVVLCTGIKINSSAYATAFGDKLASNGALNVNKHLQLEGYDNIYAIGDCANLKEPKMAYHAELHANIVVSNIINSLTHKPLKTYQPGSLTFLLSMGKNDGVGQVKGYYVGHLLVTIAKSRDLFVSKSWKTMGQPMPS | 2 | – | –
4 | Gallus gallus FSP1 residues 1-318 (cFSP1^ΔCTD) (domain or fragment, Gallus gallus (chicken), UniProt E1BR24 1-318, looked up, FSP1 (AIFM2) of chicken (Gallus gallus), residues 1-318; lacks the C-terminal domain (319-373); source: E. coli BL21 (DE3), purified (Ni-Chelating Sepharose, Superdex 200 Increase)) MGSRLSVDDSVRVVIVGGGFGGIAAASQLKSWAVPFVLVDMRDAFHHNVAALRASVESGFARKTFISYSVTFGDSFRQGKVVGIDPERQQVLLSDGEELHYSHLILATGSDGPFPGKFNKVIDMESAIQTYEDMVKEIEKSERILVVGGGAAGVEMAAEIKTEYPAKEVTLIHSKIALADVELLQSVRQEVKEILLRKGVRLLLSEKVSNVENLTTNQFQKDMVVRTEKGTEVVVDMVVLCTGIKINSSAYATAFGDKLASNGALNVNKHLQLEGYDNIYAIGDCANLKEPKMAYHAELHANIVVSNIINSLTHKPLK | – | 2 | –
5 | Gallus gallus ferroptosis suppressor protein 1, full length (enzyme, Gallus gallus (chicken), UniProt E1BR24 1-373, looked up, Ferroptosis suppressor protein 1 (FSP1, AIFM2) of chicken (Gallus gallus), full length, residues 1-373; gene optimized and synthesized, in pET-22b; also called cFSP1; chicken FSP1; source: E. coli BL21 (DE3), purified (Ni-Chelating Sepharose, Superdex 200 Increase)) MGSRLSVDDSVRVVIVGGGFGGIAAASQLKSWAVPFVLVDMRDAFHHNVAALRASVESGFARKTFISYSVTFGDSFRQGKVVGIDPERQQVLLSDGEELHYSHLILATGSDGPFPGKFNKVIDMESAIQTYEDMVKEIEKSERILVVGGGAAGVEMAAEIKTEYPAKEVTLIHSKIALADVELLQSVRQEVKEILLRKGVRLLLSEKVSNVENLTTNQFQKDMVVRTEKGTEVVVDMVVLCTGIKINSSAYATAFGDKLASNGALNVNKHLQLEGYDNIYAIGDCANLKEPKMAYHAELHANIVVSNIINSLTHKPLKTYQPGSLTFLLSMGKNDGVGQVKGYYVGHLLVTIAKSRDLFVSKSWKTMGQPMPS | 2 | – | –
6 | human FSP1 residues 1-316 (hFSP1^ΔCTD), recombinant from E. coli (domain or fragment, UniProt Q9BRQ8 1-316, looked up, FSP1 (AIFM2), human, residues 1-316; lacks the C-terminal domain; source: E. coli BL21 (DE3), purified (Ni-Chelating Sepharose, Ulp1 cleavage, Superdex 200 Increase); not shown: His6, N-terminal, cleaved; SUMO, N-terminal, cleaved) MGSQVSVESGALHVVIVGGGFGGIAAASQLQALNVPFMLVDMKDSFHHNVAALRASVETGFAKKTFISYSVTFKDNFRQGLVVGIDLKNQMVLLQGGEALPFSHLILATGSTGPFPGKFNEVSSQQAAIQAYEDMVRQVQRSRFIVVVGGGSAGVEMAAEIKTEYPEKEVTLIHSQVALADKELLPSVRQEVKEILLRKGVQLLLSERVSNLEELPLNEYREYIKVQTDKGTEVATNLVILCTGIKINSSAYRKAFESRLASSGALRVNEHLQVEGHSNVYAIGDCADVRTPKMAYLAGLHANIAVANIVNSVKQR | – | 2 | –
